# Measurements: patent US20260167699A1 (Chugai, published 2026)
# Where a chain is given by its changes, count along the chain named.
# T1: FcγRIIb (human, UniProt P31994 43-217)
# T1 construct: extracellular domain; also called 2b
# T1 sequence: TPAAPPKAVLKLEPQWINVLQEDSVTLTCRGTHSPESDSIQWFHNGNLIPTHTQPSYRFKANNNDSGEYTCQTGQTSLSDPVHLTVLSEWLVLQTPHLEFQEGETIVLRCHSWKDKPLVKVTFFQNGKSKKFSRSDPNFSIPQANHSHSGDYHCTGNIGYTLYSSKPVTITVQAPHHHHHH
# T2: FcγRIIa(H) (human, UniProt P12318 34-217)
# T2 construct: extracellular domain; also called FcγRIIa H type; 2aH
# T2 sequence: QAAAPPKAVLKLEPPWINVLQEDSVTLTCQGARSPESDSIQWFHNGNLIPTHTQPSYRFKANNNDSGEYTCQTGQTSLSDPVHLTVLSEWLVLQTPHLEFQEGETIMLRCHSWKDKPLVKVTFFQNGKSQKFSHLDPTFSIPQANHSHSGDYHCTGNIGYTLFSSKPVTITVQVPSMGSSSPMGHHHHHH
# T3: FcγRIIa(R) (human, UniProt P12318 34-217)
# T3 construct: extracellular domain; also called FcγRIIa R type; 2aR
# T3 sequence: T2 sequence with H134R
# T4: FcγRIIb extracellular domain with C-terminal His tag (human, UniProt P31994 43-217)
# T4 construct: extracellular domain; also called 2b; CD32
# T4 sequence: T1 sequence
# T5: FcγRIIa(H) extracellular domain with C-terminal His tag (human, UniProt P12318 34-217)
# T5 construct: extracellular domain; H131 allotype; also called 2aH; CD32
# T5 sequence: T2 sequence
# T6: FcγRIIa(R) extracellular domain with C-terminal His tag (human, UniProt P12318 34-217)
# T6 construct: extracellular domain; R131 allotype; also called 2aR; CD32
# T6 sequence: T2 sequence with H134R
# B1: GpH7-A5/GpH7-B3 variant H268_05P/GpL16-k0 (antibody, human IgG1, kappa)
# heavy 1: not shown
# heavy 2: not shown
# light: DIVMTQSPLSLPVTPGEPASISCQASESLVHSNRNTYLHWYLQKPGQSPQLLIYKVSNRFSGVPDRFSGSGSGTDFTLKISRVEAEDVGVYYCSQNTHVPPTFGQGTKVEIERTVAAPSVFIFPPSDEQLKSGTASVVCLLNNFYPREAKVQWKVDNALQSGNSQESVTEQDSKDSTYSLSSTLTLSKADYEKHKVYACEVTHQGLSSPVTKSFNRGEC
# notes: heterodimerized IgG1, one H chain mutated; also called He Ab
# B2: GpH7-A5/GpH7-B3 variant E269_13S/GpL16-k0 (antibody, human IgG1, kappa)
# heavy 1: not shown
# heavy 2: not shown
# light: B1 light
# notes: as for B1
# B3: GpH7-A5/GpH7-B3 variant H268_02A/GpL16-k0 (antibody, human IgG1, kappa)
# heavy 1: not shown
# heavy 2: not shown
# light: B1 light
# notes: as for B1
# B4: GpH7-A5/GpH7-B3 variant G236_10E/GpL16-k0 (antibody, human IgG1, kappa)
# heavy 1: not shown
# heavy 2: not shown
# light: B1 light
# notes: as for B1
# B5: GpH7-A5/GpH7-B3 variant D270_14T/GpL16-k0 (antibody, human IgG1, kappa)
# heavy 1: not shown
# heavy 2: not shown
# light: B1 light
# notes: as for B1
# B6: GpH7-A5/GpH7-B3 variant E269_09D/GpL16-k0 (antibody, human IgG1, kappa)
# heavy 1: not shown
# heavy 2: not shown
# light: B1 light
# notes: as for B1
# B7: GpH7-A5/GpH7-B3 variant G236_20W/GpL16-k0 (antibody, human IgG1, kappa)
# heavy 1: not shown
# heavy 2: not shown
# light: B1 light
# notes: as for B1
# B8: GpH7-A5/GpH7-B3 variant D270_08L/GpL16-k0 (antibody, human IgG1, kappa)
# heavy 1: not shown
# heavy 2: not shown
# light: B1 light
# notes: as for B1
# B9: GpH7-A5/GpH7-B3 variant E269_14T/GpL16-k0 (antibody, human IgG1, kappa)
# heavy 1: not shown
# heavy 2: not shown
# light: B1 light
# notes: as for B1
# B10: GpH7-A5/GpH7-B3 variant D270_10E/GpL16-k0 (antibody, human IgG1, kappa)
# heavy 1: not shown
# heavy 2: not shown
# light: B1 light
# notes: as for B1
# B11: GpH7-A5/GpH7-B3 variant G236_09D/GpL16-k0 (antibody, human IgG1, kappa)
# heavy 1: not shown
# heavy 2: not shown
# light: B1 light
# notes: as for B1
# B12: GpH7-A5/GpH7-B3 variant E269_01G/GpL16-k0 (antibody, human IgG1, kappa)
# heavy 1: not shown
# heavy 2: not shown
# light: B1 light
# notes: as for B1
# B13: GpH7-A5/GpH7-B3 variant H268_01G/GpL16-k0 (antibody, human IgG1, kappa)
# heavy 1: not shown
# heavy 2: not shown
# light: B1 light
# notes: as for B1
# B14: GpH7-A5/GpH7-B3 variant G236_02A/GpL16-k0 (antibody, human IgG1, kappa)
# heavy 1: not shown
# heavy 2: not shown
# light: B1 light
# notes: as for B1
# B15: GpH7-A5/GpH7-B3 variant E269_02A/GpL16-k0 (antibody, human IgG1, kappa)
# heavy 1: not shown
# heavy 2: not shown
# light: B1 light
# notes: as for B1
# B16: GpH7-A5/GpH7-B3 variant T335_05P/GpL16-k0 (antibody, human IgG1, kappa)
# heavy 1: not shown
# heavy 2: not shown
# light: B1 light
# notes: heterodimerized IgG1 (He Ab), mutation in one H chain only; also called He Ab
# B17: GpH7-A5/GpH7-B3 variant T335_13S/GpL16-k0 (antibody, human IgG1, kappa)
# heavy 1: not shown
# heavy 2: not shown
# light: B1 light
# notes: as for B16
# B18: GpH7-A5/GpH7-B3 variant T335_11K/GpL16-k0 (antibody, human IgG1, kappa)
# heavy 1: not shown
# heavy 2: not shown
# light: B1 light
# notes: as for B16
# B19: GpH7-A5/GpH7-B3 variant T335_15Y/GpL16-k0 (antibody, human IgG1, kappa)
# heavy 1: not shown
# heavy 2: not shown
# light: B1 light
# notes: as for B16
# B20: GpH7-A5/GpH7-B3 variant T335_20W/GpL16-k0 (antibody, human IgG1, kappa)
# heavy 1: not shown
# heavy 2: not shown
# light: B1 light
# notes: as for B16
# B21: GpH7-A5/GpH7-B3 variant T335_06M/GpL16-k0 (antibody, human IgG1, kappa)
# heavy 1: not shown
# heavy 2: not shown
# light: B1 light
# notes: as for B16
# B22: GpH7-A5/GpH7-B3 variant T335_12R/GpL16-k0 (antibody, human IgG1, kappa)
# heavy 1: not shown
# heavy 2: not shown
# light: B1 light
# notes: as for B16
# B23: GpH7-A5/GpH7-B3 variant T335_07I/GpL16-k0 (antibody, human IgG1, kappa)
# heavy 1: not shown
# heavy 2: not shown
# light: B1 light
# notes: as for B16
# B24: GpH7-A5/GpH7-B3 variant T335_09D/GpL16-k0 (antibody, human IgG1, kappa)
# heavy 1: not shown
# heavy 2: not shown
# light: B1 light
# notes: as for B16
# B25: GpH7-A5/GpH7-B3 variant T335_10E/GpL16-k0 (antibody, human IgG1, kappa)
# heavy 1: not shown
# heavy 2: not shown
# light: B1 light
# notes: as for B16
# B26: GpH7-A5/GpH7-B3 variant T335_18N/GpL16-k0 (antibody, human IgG1, kappa)
# heavy 1: not shown
# heavy 2: not shown
# light: B1 light
# notes: as for B16
# B27: GpH7-A5/GpH7-B3 variant T335_08L/GpL16-k0 (antibody, human IgG1, kappa)
# heavy 1: not shown
# heavy 2: not shown
# light: B1 light
# notes: as for B16
# B28: GpH7-A5/GpH7-B3 variant T335_16H/GpL16-k0 (antibody, human IgG1, kappa)
# heavy 1: not shown
# heavy 2: not shown
# light: B1 light
# notes: as for B16
# B29: GpH7-A5/GpH7-B3 variant T335_19Q/GpL16-k0 (antibody, human IgG1, kappa)
# heavy 1: not shown
# heavy 2: not shown
# light: B1 light
# notes: as for B16
# Target: T1, FcγRIIb
# Experiment: SPR (Biacore), binding relative to GpH7-A5/GpH7-B3/GpL16-k0 x100;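 also: surface plasmon resonance at 25 °C, antibody captured on a sensor chip and soluble FcγR flowed over it in HBS-EP+ running buffer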
# Experimental: (§1) The antibody of interest was analyzed for its interaction with FcγR using a BiaCore™ T100, BiaCore™ A100, or BiaCore™ 4000 surface plasmon resonance system (GE Healthcare Japan Corp.). The running buffer used was HBS-EP+ (GE Healthcare Japan Corp.). The assay temperature was set to 25° C. The sensor chips used were: a chip prepared by immobilizing antigenic peptides onto Series S Sensor Chip CM5 (GE Healthcare Japan Corp.) by the amine coupling method; a chip prepared by immobilizing antigenic peptides biotinylated in advance onto Series S Sensor Chip SA (certified) (GE Healthcare Japan Corp.) through their interaction; a chip prepared by immobilizing protein L (ACTIGEN, BioVision, Inc.) onto Series S Sensor Chip CM5 (GE Healthcare Japan Corp.); and a chip prepared by immobilizing protein A/G (Thermo Fisher Scientific K.K.) onto Series S Sensor Chip CM5 (GE Healthcare Japan Corp.). The antibody of interest was captured onto any of these chips and allowed to interact with FcγR diluted with a running buffer. The antibody captured on the chip was washed off through the reaction of 10 mM glycine-HCl (pH 1.5) to regenerate the chip, which was repetitively used.
row,Binder,He/Con 2b [%]
1,B1,122
2,B2,50.2
3,B3,175
4,B4,115
5,B5,54.8
6,B6,110
7,B7,60.7
8,B8,50.8
9,B9,53.2
10,B10,72.5
11,B11,174
12,B12,54.1
13,B13,151
14,B14,101
15,B15,52.4

# Target: T2, FcγRIIa(H)
# Experiment: as above
# Experimental: as §1
row,Binder,He/Con 2aH [%]
1,B1,82.7
2,B2,70.7
3,B3,115
4,B4,116
5,B5,81.3
6,B6,105
7,B7,153
8,B8,81.8
9,B9,70.3
10,B10,111
11,B11,93.5
12,B12,72.3
13,B13,100
14,B14,145
15,B15,78.7

# Target: T7, FcγRIa (human, UniProt P12314 16-292)
# T7 construct: extracellular domain; also called 1a
# Experiment: as above
# Experimental: as §1
# T7 sequence (P12314 other isoform, or with tags, fused parts or gaps): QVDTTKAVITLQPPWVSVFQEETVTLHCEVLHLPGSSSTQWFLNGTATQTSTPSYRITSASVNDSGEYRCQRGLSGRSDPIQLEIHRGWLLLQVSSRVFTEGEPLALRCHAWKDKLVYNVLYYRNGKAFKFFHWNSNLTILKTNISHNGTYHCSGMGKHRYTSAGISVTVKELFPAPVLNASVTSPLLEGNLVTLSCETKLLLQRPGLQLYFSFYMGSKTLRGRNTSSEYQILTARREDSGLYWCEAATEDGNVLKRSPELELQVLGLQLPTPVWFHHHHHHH
row,Binder,He/Con 1a [%]
1,B1,106
2,B2,99.8
3,B3,105
4,B4,92.6
5,B5,89.5
6,B6,103
7,B7,104
8,B8,93.2
9,B9,102
10,B10,104
11,B11,95.5
12,B12,101
13,B13,104
14,B14,99.1
15,B15,101

# Target: T3, FcγRIIa(R)
# Experiment: as above
# Experimental: as §1
row,Binder,He/Con 2aR [%]
1,B1,114
2,B2,65.8
3,B3,143
4,B4,124
5,B5,72.2
6,B6,113
7,B7,77.3
8,B8,62.8
9,B9,71
10,B10,85.7
11,B11,105
12,B12,70.3
13,B13,134
14,B14,145
15,B15,70.2

# Target: T4, FcγRIIb extracellular domain with …
# Experiment: SPR; % of GpH7-A5/GpH7-B3/GpL16-k0
row,Binder,He/Con 2b [%]
1,B16,109
2,B17,111
3,B18,99.4
4,B19,118
5,B20,114
6,B21,109
7,B22,100
8,B23,116
9,B24,118
10,B25,118
11,B26,111
12,B27,114
13,B28,112
14,B29,109

# Target: T8, FcγRIIIa extracellular domain with C-terminal His tag (human, UniProt P08637 17-208)
# T8 construct: extracellular domain; also called 3a; CD16
# Experiment: SPR; % of GpH7-A5/GpH7-B3/GpL16-k0
# T8 sequence (P08637 other isoform, or with tags, fused parts or gaps): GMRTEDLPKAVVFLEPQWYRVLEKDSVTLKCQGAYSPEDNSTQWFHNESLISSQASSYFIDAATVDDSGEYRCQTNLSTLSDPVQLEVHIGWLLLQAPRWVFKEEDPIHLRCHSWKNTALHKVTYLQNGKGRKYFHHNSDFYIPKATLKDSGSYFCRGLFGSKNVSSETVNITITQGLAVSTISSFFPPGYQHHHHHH
row,Binder,He/Con 3a [%]
1,B16,100
2,B17,100
3,B18,91.7
4,B19,99.7
5,B20,97.3
6,B21,97
7,B22,93.1
8,B23,102
9,B24,103
10,B25,102
11,B26,94.4
12,B27,97.8
13,B28,99.3
14,B29,97.7

# Target: T5, FcγRIIa(H) extracellular domain with …
# Experiment: SPR; % of GpH7-A5/GpH7-B3/GpL16-k0
row,Binder,He/Con 2aH [%]
1,B16,112
2,B17,110
3,B18,103
4,B19,110
5,B20,109
6,B21,106
7,B22,103
8,B23,112
9,B24,111
10,B25,112
11,B26,107
12,B27,109
13,B28,109
14,B29,107

# Target: T6, FcγRIIa(R) extracellular domain with …
# Experiment: SPR; % of GpH7-A5/GpH7-B3/GpL16-k0
row,Binder,He/Con 2aR [%]
1,B16,109
2,B17,116
3,B18,105
4,B19,117
5,B20,115
6,B21,110
7,B22,106
8,B23,115
9,B24,116
10,B25,117
11,B26,112
12,B27,114
13,B28,114
14,B29,112

# Target: T9, FcγRIa extracellular domain with C-terminal His tag (human, UniProt P12314 16-292)
# T9 construct: extracellular domain; also called 1a; CD64
# Experiment: SPR; % of GpH7-A5/GpH7-B3/GpL16-k0
# T9 sequence (P12314 other isoform, or with tags, fused parts or gaps): as the sequence (P12314 other isoform, or with tags, fused parts or gaps) above
row,Binder,He/Con 1a [%]
1,B16,110
2,B17,108
3,B18,114
4,B19,111
5,B20,110
6,B21,110
7,B22,116
8,B23,113
9,B24,111
10,B25,112
11,B26,109
12,B27,118
13,B28,109
14,B29,108
